# ± gives the uncertainty stated by the source.
# B1: Chromodomain-helicase-DNA-binding protein 7, residues 2564 to 2605; numbered along this chain, Q9P2D1 (parent)
# chain: DPDTRIPVINLEDGTRLVGEDAPKNKDLVEWLKLHPTYTVDM
# Variants of: B1
# Assay: abundance fitness (aPCA) (normalised: wild type 0, dead -1); higher = more abundant; growth selection in yeast, the domain comes from the species named
# Conditions: Homo sapiens
row,Variant,abundance fitness
1,DPDTRIPVINLEDGTRLSGEDAPKNKDLVEWLKLHPTYTVDM [V18S],0.076 ± 0.073
2,DPDTRIPVINLEDGTRLRGEDAPKNKDLVEWLKLHPTYTVDM [V18R],-0.081 ± 0.055
3,DPDTRIPVINLEDGTRLMGEDAPKNKDLVEWLKLHPTYTVDM [V18M],0.091 ± 0.062
4,DPDTRIPVINLEDGTRLGGEDAPKNKDLVEWLKLHPTYTVDM [V18G],-0.04 ± 0.059
5,DPDTRIPVINLEDGTRLTGEDAPKNKDLVEWLKLHPTYTVDM [V18T],0.118 ± 0.095
6,DPDTRIPVINLEDGTRLIGEDAPKNKDLVEWLKLHPTYTVDM [V18I],0.155 ± 0.079
7,DPDTRIPVINLEDGTRLQGEDAPKNKDLVEWLKLHPTYTVDM [V18Q],0.108 ± 0.087
8,DPDTRIPVINLEDGTRLKGEDAPKNKDLVEWLKLHPTYTVDM [V18K],-0.154 ± 0.16
9,DPDTRIPVINLEDGTRLWGEDAPKNKDLVEWLKLHPTYTVDM [V18W],-0.132 ± 0.053
10,DPDTRIPVINLEDGTRLLGEDAPKNKDLVEWLKLHPTYTVDM [V18L],-0.131 ± 0.071
11,DPDTRIPVINLEDGTRLNGEDAPKNKDLVEWLKLHPTYTVDM [V18N],-0.06 ± 0.063
12,DPDTRIPVINLEDGTRLCGEDAPKNKDLVEWLKLHPTYTVDM [V18C],0.074 ± 0.076
13,DPDTRIPVINLEDGTRLDGEDAPKNKDLVEWLKLHPTYTVDM [V18D],0.147 ± 0.072
14,DPDTRIPVINLEDGTRLHGEDAPKNKDLVEWLKLHPTYTVDM [V18H],-0.047 ± 0.069
15,DPDTRIPVINLEDGTRLPGEDAPKNKDLVEWLKLHPTYTVDM [V18P],-0.372 ± 0.11
16,DPDTRIPVINLEDGTRLFGEDAPKNKDLVEWLKLHPTYTVDM [V18F],-0.165 ± 0.079
17,DPDTRIPVINLEDGTRLYGEDAPKNKDLVEWLKLHPTYTVDM [V18Y],-0.065 ± 0.078
18,DPDTRIPVINLEDGTRLEGEDAPKNKDLVEWLKLHPTYTVDM [V18E],0.039 ± 0.068
19,DPDTRIPVINLEDGTRLVGEDAPCNKDLVEWLKLHPTYTVDM [K24C],-0.094 ± 0.061
20,DPDTRIPVINLEDGTRLVGEDAPFNKDLVEWLKLHPTYTVDM [K24F],-0.444 ± 0.095

row,Variant,abundance fitness
1,DPDTRIPVINLEDGTRLVGEDAPDNKDLVEWLKLHPTYTVDM [K24D],-0.489 ± 0.072
2,DPDTRIPVINLEDGTRLVGEDAPANKDLVEWLKLHPTYTVDM [K24A],-0.022 ± 0.065
3,DPDTRIPVINLEDGTRLVGEDAPGNKDLVEWLKLHPTYTVDM [K24G],-0.552 ± 0.053
4,DPDTRIPVINLEDGTRSVGEDAPKNKDLVEWLKLHPTYTVDM [L17S],-0.421 ± 0.06
5,DPDTRIPVINLEDGTRGVGEDAPKNKDLVEWLKLHPTYTVDM [L17G],-0.371 ± 0.056
6,DPDTRIPVINLEDGTRNVGEDAPKNKDLVEWLKLHPTYTVDM [L17N],-0.351 ± 0.17
7,DPDTRIPVINLEDGTRIVGEDAPKNKDLVEWLKLHPTYTVDM [L17I],-0.012 ± 0.072
8,DPDTRIPVINLEDGTRRVGEDAPKNKDLVEWLKLHPTYTVDM [L17R],-0.046 ± 0.064
9,DPDTRIPVINLEDGTRWVGEDAPKNKDLVEWLKLHPTYTVDM [L17W],-0.527 ± 0.08
10,DPDTRIPVINLEDGTRHVGEDAPKNKDLVEWLKLHPTYTVDM [L17H],-0.095 ± 0.41
11,DPDTRIPVINLEDGTRPVGEDAPKNKDLVEWLKLHPTYTVDM [L17P],-1.01 ± 0.27
12,DPDTRIPVINLEDGTRYVGEDAPKNKDLVEWLKLHPTYTVDM [L17Y],-0.217 ± 0.063
13,DPDTRIPVINLEDGTRMVGEDAPKNKDLVEWLKLHPTYTVDM [L17M],0.151 ± 0.073
14,DPDTRIPVINLEDGTRQVGEDAPKNKDLVEWLKLHPTYTVDM [L17Q],-0.124 ± 0.086
15,DPDTRIPVINLEDGTRTVGEDAPKNKDLVEWLKLHPTYTVDM [L17T],-0.308 ± 0.12
16,DPDTRIPVINLEDGTRVVGEDAPKNKDLVEWLKLHPTYTVDM [L17V],-0.17 ± 0.055
17,DPDTRIPVINLEDGTRLVSEDAPKNKDLVEWLKLHPTYTVDM [G19S],-0.468 ± 0.062
18,DPDTRIPVINLEDGTRLVKEDAPKNKDLVEWLKLHPTYTVDM [G19K],-0.262 ± 0.15
19,DPDTRIPVINLEDGTRLVEEDAPKNKDLVEWLKLHPTYTVDM [G19E],-0.093 ± 0.11
20,DPDTRIPVINLEDGTRLVMEDAPKNKDLVEWLKLHPTYTVDM [G19M],-0.442 ± 0.073

row,Variant,abundance fitness
1,DPDTRIPVINLEDGTRLVTEDAPKNKDLVEWLKLHPTYTVDM [G19T],-0.741 ± 0.08
2,DPDTRIPVINLEDGTRLVNEDAPKNKDLVEWLKLHPTYTVDM [G19N],-0.264 ± 0.16
3,DPDTRIPVINLEDGTRLVVEDAPKNKDLVEWLKLHPTYTVDM [G19V],-0.64 ± 0.079
4,DPDTRIPVINLEDGTRLVQEDAPKNKDLVEWLKLHPTYTVDM [G19Q],-0.437 ± 0.12
5,DPDTRIPVINLEDGTRLVWEDAPKNKDLVEWLKLHPTYTVDM [G19W],-0.638 ± 0.082
6,DPDTRIPVINLEDGTRLVIEDAPKNKDLVEWLKLHPTYTVDM [G19I],-0.644 ± 0.075
7,DPDTRIPVINLEDGTRLVYEDAPKNKDLVEWLKLHPTYTVDM [G19Y],-0.45 ± 0.12
8,DPDTRIPVINLEDGTRLVFEDAPKNKDLVEWLKLHPTYTVDM [G19F],-0.852 ± 0.13
9,DPDTRIPVINLEDGTRLVHEDAPKNKDLVEWLKLHPTYTVDM [G19H],-0.478 ± 0.077
10,DPDTRIPVINLEDGTRLVAEDAPKNKDLVEWLKLHPTYTVDM [G19A],-0.292 ± 0.11
11,DPDTRIPVINLEDGTRLVREDAPKNKDLVEWLKLHPTYTVDM [G19R],-0.59 ± 0.1
12,DPDTRIPVINLEDGTRLVLEDAPKNKDLVEWLKLHPTYTVDM [G19L],-0.518 ± 0.13
13,DPDTRIPVINLEDGTRLVDEDAPKNKDLVEWLKLHPTYTVDM [G19D],-0.125 ± 0.065
14,DPDTRIPVINLEDGTRLVGEDASKNKDLVEWLKLHPTYTVDM [P23S],-0.79 ± 0.06
15,DPDTRIPVINLEDGTRLVGEDANKNKDLVEWLKLHPTYTVDM [P23N],-0.915 ± 0.15
16,DPDTRIPVINLEDGTRLVGEDAAKNKDLVEWLKLHPTYTVDM [P23A],-1.35 ± 0.21
17,DPDTRIPVINLEDGTRLVGEDAEKNKDLVEWLKLHPTYTVDM [P23E],-0.684 ± 0.14
18,DPDTRIPVINLEDGTRLVGEDAMKNKDLVEWLKLHPTYTVDM [P23M],-0.654 ± 0.25
19,DPDTRIPVINLEDGTRLVGEDARKNKDLVEWLKLHPTYTVDM [P23R],-0.843 ± 0.11
20,DPDTRIPVINLEDGTRLVGEDAQKNKDLVEWLKLHPTYTVDM [P23Q],-0.252 ± 0.14
